Assay in all cases: HA microarray, BCC supernatant
Assay [1] concerns the target recombinant soluble homotrimeric HA of A/northern shoveler/California/HKWF115/07 (H6) (Influenza A virus A/northern …).
Assay [2] deals with recombinant soluble homotrimeric HA of A/Solomon Islands/3/06 (H1N1) (Influenza A virus A/Solomon …).
Assay [3] has as its target recombinant soluble homotrimeric HA of A/Japan/305/57 (H2N2) (Influenza A virus A/Japan/305/1957(H2N2)).
For assay [4], the target named is recombinant soluble homotrimeric HA of A/duck/Yangzhou/02/05 (H8N4) (Influenza A virus …).
The target of assay [5] is recombinant soluble homotrimeric HA of A/Vietnam/1203/04 (H5N1) (Influenza A virus …).
The target of assay [6] is recombinant soluble homotrimeric HA of A/Anhui/1/05 (H5N1) (Influenza A virus A/Anhui/1/2005(H5N1)).
In assay [7] the target is recombinant soluble homotrimeric HA of A/Indonesia/5/05 (H5N1) (Influenza A virus …).
The target of assay [8] is recombinant soluble homotrimeric HA of A/Netherlands/219/03 (H7N7) (Influenza A virus …).
Assay [9] deals with recombinant soluble homotrimeric HA of A/swine/Ontario/01911-2/99 (H4N6) (Influenza A virus …).
Assay [10] has as its target recombinant soluble homotrimeric HA of A/California/4/09 (H1N1) (Influenza A virus …).
Assay [11] concerns the target recombinant soluble homotrimeric HA of A/Hong Kong/2108/03 (H9N2) (Influenza A virus A/HK/2108/2003(H9N2)).
Assay [12] concerns the target recombinant soluble homotrimeric HA of A/Wisconsin/67/05 (H3N2) (Influenza A virus …).
Assay [13] concerns the target recombinant soluble homotrimeric HA of A/chicken/Vietnam/NCVD-016/08 (H5N1) (Influenza A virus …).

B1: TCN-556 (5089_K12) (antibody, V domains shown)
VH: QVQLVQSGAEVKKPGASVKVSCKASGYTFIGYDMHWVRQAPGQGLEWMGWINAKRGGTNYAQKFQGRVTMTRDTSISTAYMELNSLRSDDTAVYYCARGVGSRTTIFGVLNPEFDYWGQGTLVTVSS
VL: QSALTQPPSASGSPGQSVTISCTGSSSDVGGYDYVSWYQQHPGKAPKLLIYEVTKRPSGVPDRFSGSKSGNTASLTVSGLQAEDEADYYCSSYAGNYNHVFGPGTKVTVL
With B1, the “Trimeric HA Binding: RLU” value in [1] came out at 11900 RLU; in [2], 2850 RLU; in [3], 5610 RLU; in [4], 16900 RLU; in [5], 13800 RLU; in [6], 3700 RLU. Further, the “Trimeric HA Binding: RLU” value amounted to 8450 RLU in [7]; 10600 RLU in assay [8]; 5600 RLU in [9]; 14600 RLU in assay [10]; 7410 RLU in assay [11]; 9320 RLU in assay [12]. For the same molecule, the “Trimeric HA Binding: RLU” value in assay [13] was found to be 8800 RLU.

B2: TCN-560 (5084_P10) (antibody, V domains shown)
VH: EVQLVESGGGLVQPGGSLRLSCAASGFIFRNYWMSWVRQAPGKGLEWVANIKQDGREKYYVDSLRGRVNISRDNAENSLYLHMNSLRVEDTAVYFCARARMVVVTGDGFDVWGHGTMVTVSS
VL: DIQMTQSPSSLSASVGDRVTITCRASQNIKRYFNWYQQKPGKAPKLLIYAASNLENGVPSRFSGSGSGTDFTLTISSLQPEDFATYYCQQSFSKSWTFGQGTNVDIK
With B2, the “Trimeric HA Binding: RLU” value worked out at 42300 RLU in assay [1]; 38800 RLU in [2]; 46700 RLU in [3]; 44700 RLU in assay [4]; 44000 RLU in assay [5]; 49100 RLU in [6]. Further, the “Trimeric HA Binding: RLU” value in assay [7] was 35900 RLU; in assay [8] it was 48500 RLU; in [9], 41600 RLU; in assay [10], 49200 RLU; in assay [11], 49400 RLU; in assay [12], 49100 RLU. For the same molecule, in [13], the “Trimeric HA Binding: RLU” value is 46000 RLU.

Values taken from US20150086555A1 (THERACLONE SCIENCES, published 2015).
